Source: US20200339636A1 (CHILDREN S MEDICAL CENTER, published 2020)

B5: sTcdB (TcdB residues 1285-1804), wild type, with C-terminal HA tag (other)
chain: TNIRINLDSNTRSFIVPIITTEYIREKLSYSFYGSGGTYALSLSQYNMGINIELSESDVWIIDVDNVVRDVTIESDKIKKGDLIEGILSTLSIEENKIILNSHEINFSGEVNGSNGFVSLTFSILEGINAIIEVDLLSKSYKLLISGELKILMLNSNHIQQKIDYIGFNSELQKNIPYSFVDSEGKENGFINGSTKEGLFVSELPDVVLISKVYMDDSKPSFGYYSNNLKDVKVITKDNVNILTGYYLKDDIKISLSLTLQDEKTIKLNSVHLDESGVAEILKFMNRKGNTNTSDSLMSFLESMNIKSIFVNFLQSNIKFILDANFIISGTTSIGQFEFICDENDNIQPYFIKFNTLETNYTLYVGNRQNMIVEPNYDLDDSGDISSTVINFSQKYLYGIDSCVNKVVISPNIYTDEINITPVYETNNTYPEVIVLDANYINEKINVNINDLSIRYVWSNDGNDFILMSTSEENKVSQVKIRFVNVFKDKTLANKLSFNFSDKQDVPVSEIILSFTPSYY

Tests used:
[1] = target: B5; experiment: BLI, CRD-Fc with or without Wnt3A
[2] = target: T1, His-tagged CRD2 (CRD of human Frizzled 2, residues 24-156) (human, UniProt Q14332 24-156); experiment: pull down by His-CRD2
T1 construct: range 24-156

[3] = target: Recombinant full length TcdB (C. difficile strain VPI 10463), 6xHis-tagged (Clostridium difficile strain VPI 10463, UniProt P18177 1-2366); experiment: BLI, FZD5 CRD-Fc with or without Wnt3A
Recombinant full length TcdB (C. difficile strain VPI 10463), 6xHis-tagged, sequence (P18177 whole entry): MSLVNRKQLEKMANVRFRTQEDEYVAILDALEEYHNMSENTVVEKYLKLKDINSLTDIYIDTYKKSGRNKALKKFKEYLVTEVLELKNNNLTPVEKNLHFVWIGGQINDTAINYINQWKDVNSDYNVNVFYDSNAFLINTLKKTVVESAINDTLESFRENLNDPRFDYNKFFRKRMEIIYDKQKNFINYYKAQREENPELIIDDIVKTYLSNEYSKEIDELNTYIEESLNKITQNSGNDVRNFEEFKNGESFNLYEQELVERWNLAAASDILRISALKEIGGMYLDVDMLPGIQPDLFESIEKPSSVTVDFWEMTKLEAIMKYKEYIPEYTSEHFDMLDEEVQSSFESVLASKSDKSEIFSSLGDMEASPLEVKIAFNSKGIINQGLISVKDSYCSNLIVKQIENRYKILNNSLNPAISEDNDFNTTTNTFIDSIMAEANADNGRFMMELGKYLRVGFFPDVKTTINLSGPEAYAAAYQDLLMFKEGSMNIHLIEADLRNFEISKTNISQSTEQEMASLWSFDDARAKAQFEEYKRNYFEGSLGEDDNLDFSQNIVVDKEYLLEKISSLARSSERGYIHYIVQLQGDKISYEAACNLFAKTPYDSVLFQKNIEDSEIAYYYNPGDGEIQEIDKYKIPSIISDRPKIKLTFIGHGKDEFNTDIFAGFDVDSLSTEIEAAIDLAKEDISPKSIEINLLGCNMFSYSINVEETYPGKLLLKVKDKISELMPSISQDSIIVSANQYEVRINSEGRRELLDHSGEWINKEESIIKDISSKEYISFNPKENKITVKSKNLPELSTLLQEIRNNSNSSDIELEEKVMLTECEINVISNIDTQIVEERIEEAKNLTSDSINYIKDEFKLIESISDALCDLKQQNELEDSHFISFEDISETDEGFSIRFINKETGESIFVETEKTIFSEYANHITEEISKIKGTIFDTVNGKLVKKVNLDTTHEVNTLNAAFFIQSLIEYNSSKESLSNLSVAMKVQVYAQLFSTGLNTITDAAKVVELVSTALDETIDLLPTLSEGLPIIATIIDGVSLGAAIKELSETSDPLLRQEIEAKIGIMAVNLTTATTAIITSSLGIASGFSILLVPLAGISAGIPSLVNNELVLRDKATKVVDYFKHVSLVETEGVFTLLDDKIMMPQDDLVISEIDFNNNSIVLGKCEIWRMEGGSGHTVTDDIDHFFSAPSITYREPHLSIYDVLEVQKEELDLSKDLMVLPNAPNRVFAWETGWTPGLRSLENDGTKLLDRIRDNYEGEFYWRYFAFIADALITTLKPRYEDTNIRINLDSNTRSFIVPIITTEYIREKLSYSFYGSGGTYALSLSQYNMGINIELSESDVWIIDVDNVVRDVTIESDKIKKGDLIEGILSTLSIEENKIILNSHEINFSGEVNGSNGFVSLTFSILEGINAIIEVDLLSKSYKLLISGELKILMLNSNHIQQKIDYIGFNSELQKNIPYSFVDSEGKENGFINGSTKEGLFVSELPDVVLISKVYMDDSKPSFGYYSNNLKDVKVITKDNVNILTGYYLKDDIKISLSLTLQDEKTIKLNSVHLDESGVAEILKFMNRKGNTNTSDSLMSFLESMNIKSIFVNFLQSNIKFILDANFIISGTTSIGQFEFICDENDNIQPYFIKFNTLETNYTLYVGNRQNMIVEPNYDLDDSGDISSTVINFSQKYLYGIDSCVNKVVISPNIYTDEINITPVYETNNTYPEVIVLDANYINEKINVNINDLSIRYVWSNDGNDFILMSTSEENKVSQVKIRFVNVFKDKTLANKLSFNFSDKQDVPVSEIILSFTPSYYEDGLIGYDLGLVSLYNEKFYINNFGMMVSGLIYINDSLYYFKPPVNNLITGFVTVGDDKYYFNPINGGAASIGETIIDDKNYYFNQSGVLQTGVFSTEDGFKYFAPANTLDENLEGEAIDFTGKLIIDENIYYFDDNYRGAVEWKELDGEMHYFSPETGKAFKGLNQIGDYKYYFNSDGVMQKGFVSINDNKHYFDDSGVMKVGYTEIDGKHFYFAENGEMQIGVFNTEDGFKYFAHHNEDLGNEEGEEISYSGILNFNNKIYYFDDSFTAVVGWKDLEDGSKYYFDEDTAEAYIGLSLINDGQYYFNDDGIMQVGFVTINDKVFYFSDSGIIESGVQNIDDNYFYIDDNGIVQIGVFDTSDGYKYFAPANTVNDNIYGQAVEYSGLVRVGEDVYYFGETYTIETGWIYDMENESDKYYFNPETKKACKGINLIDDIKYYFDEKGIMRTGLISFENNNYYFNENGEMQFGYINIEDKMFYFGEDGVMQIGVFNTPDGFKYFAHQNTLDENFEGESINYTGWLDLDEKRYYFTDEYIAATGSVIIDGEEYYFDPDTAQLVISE

[4] = target: B5; experiment: pull-down on Protein G beads and BLI, FZD5 CRD-Fc with or without PAM or Wnt3A
[5] = target: T2, FZD2^CRD-Fc (recombinant human, R&D Systems) (human, UniProt Q14332 24-162); experiment: BLI (Blitz), FZD2CRD-Fc on anti-hIgG-Fc biosensor
T2 construct: domain: CRD; also called Fc-tagged CRD2; CRD2; not shown: Fc tag of the bought protein

[6] = target: T2, FZD2^CRD-Fc (recombinant human, R&D …)
[7] = target: T2, FZD2^CRD-Fc (recombinant human, R&D …); experiment: BLI, FZD2 CRD-Fc on anti-hIgG-Fc biosensor
[8] = target: T2, FZD2^CRD-Fc (recombinant human, R&D …); experiment: BLI (Blitz), FZD2CRD-Fc on anti-hIgG-Fc biosensor; kon error printed 1.69 x 10^3
[9] = target: T2, FZD2^CRD-Fc (recombinant human, R&D …); experiment: BLI, FZD2CRD-Fc (20 µg/ml) on anti-hIgG-Fc biosensor, then 20 µg/ml Wnt3A

B1: FZD8^CRD-Fc (recombinant human, R&D Systems) (Fc fusion)
chain: ASAKELACQEITVPLCKGIGYNYTYMPNQFNHDTQDEAGLEVHQFWPLVEIQCSPDLKFFLCSMYTPICLEDYKKPLPPCRSVCERAKAGCAPLMRQYGFAWPDRMRCDRLPEQGNPDTLCMDYNRTDLTT
notes: domain: CRD
binding result [1]: binds

B2: TcdB fragment 1510-1688 (other)
chain: SNNLKDVKVITKDNVNILTGYYLKDDIKISLSLTLQDEKTIKLNSVHLDESGVAEILKFMNRKGNTNTSDSLMSFLESMNIKSIFVNFLQSNIKFILDANFIISGTTSIGQFEFICDENDNIQPYFIKFNTLETNYTLYVGNRQNMIVEPNYDLDDSGDISSTVINFSQKYLYGIDSCV
binding result [2]: no binding

B3: TcdB fragment 1430-1804 (other)
chain: SGELKILMLNSNHIQQKIDYIGFNSELQKNIPYSFVDSEGKENGFINGSTKEGLFVSELPDVVLISKVYMDDSKPSFGYYSNNLKDVKVITKDNVNILTGYYLKDDIKISLSLTLQDEKTIKLNSVHLDESGVAEILKFMNRKGNTNTSDSLMSFLESMNIKSIFVNFLQSNIKFILDANFIISGTTSIGQFEFICDENDNIQPYFIKFNTLETNYTLYVGNRQNMIVEPNYDLDDSGDISSTVINFSQKYLYGIDSCVNKVVISPNIYTDEINITPVYETNNTYPEVIVLDANYINEKINVNINDLSIRYVWSNDGNDFILMSTSEENKVSQVKIRFVNVFKDKTLANKLSFNFSDKQDVPVSEIILSFTPSYY
binding result [2]: no binding

B4: FZD5^CRD-Fc (recombinant human, Sino Biologics) (Fc fusion, UniProt Q13467 27-167, looked up)
chain: ASKAPVCQEITVPMCRGIGYNLTHMPNQFNHDTQDEAGLEVHQFWPLVEIQCSPDLRFFLCSMYTPICLPDYHKPLPPCRSVCERAKAGCSPLMRQYGFAWPERMSCDRLPVLGRDAEVLCMDYNRSEATTAPPRPFPAKP
notes: domain: CRD; also called CRD5; CRD5-Fc; not shown: Fc tag of the bought protein
binding result [3]: binds | binding result [4]: binds

B5
Kd [5]: 13 nM | koff [6]: 0.0015 s⁻¹ | Kd [7]: ~13 nM | kon [8]: 114000 M⁻¹ s⁻¹

B6: TcdB fragment 1071-1512 (other)
chain: LTTATTAIITSSLGIASGFSILLVPLAGISAGIPSLVNNELVLRDKATKVVDYFKHVSLVETEGVFTLLDDKIMMPQDDLVISEIDFNNNSIVLGKCEIWRMEGGSGHTVTDDIDHFFSAPSITYREPHLSIYDVLEVQKEELDLSKDLMVLPNAPNRVFAWETGWTPGLRSLENDGTKLLDRIRDNYEGEFYWRYFAFIADALITTLKPRYEDTNIRINLDSNTRSFIVPIITTEYIREKLSYSFYGSGGTYALSLSQYNMGINIELSESDVWIIDVDNVVRDVTIESDKIKKGDLIEGILSTLSIEENKIILNSHEINFSGEVNGSNGFVSLTFSILEGINAIIEVDLLSKSYKLLISGELKILMLNSNHIQQKIDYIGFNSELQKNIPYSFVDSEGKENGFINGSTKEGLFVSELPDVVLISKVYMDDSKPSFGYYSNN
binding result [2]: no binding

B7: FZD4^CRD-Fc (recombinant human, Sino Biologics) (Fc fusion)
chain: FGDEEERRCDPIRISMCQNLGYNVTKMPNLVGHELQTDAELQLTTFTPLIQYGCSSQLQFFLCSVYVPMCTEKINIPIGPCGGMCLSVKRRCEPVLKEFGFAWPESLNCSKFPPQNDHNHMCMEGPGDEEVPLPHKTPIQPGEE
notes: domain: CRD
binding result [1]: binds

B8: Wnt3A (recombinant human, StemRD) (ligand)
chain: SYPIWWSLAVGPQYSSLGSQPILCASIPGLVPKQLRFCRNYVEIMPSVAEGIKIGIQECQHQFRGRRWNCTTVHDSLAIFGPVLDKATRESAFVHAIASAGVAFAVTRSCAEGTAAICGCSSRHQGSPGKGWKWGGCSEDIEFGGMVSREFADARENRPDARSAMNRHNNEAGRQAIASHMHLKCKCHGLSGSCEVKTCWWSQPDFRAIGDFLKDKYDSASEMVVEKHRESRGWVETLRPRYTYFKVPTERDLVYYEASPNFCEPNPETGSFGTRDRTCNVSSHGIDGCDLLCCGRGHNARAERRREKCRCVFHWCCYVSCQECTRVYDVHTCK
binding result [9]: binds

B9: TcdB fragment 1688-1835 (other)
chain: VNKVVISPNIYTDEINITPVYETNNTYPEVIVLDANYINEKINVNINDLSIRYVWSNDGNDFILMSTSEENKVSQVKIRFVNVFKDKTLANKLSFNFSDKQDVPVSEIILSFTPSYYEDGLIGYDLGLVSLYNEKFYINNFGMMVSGL
binding result [2]: no binding

B10: TcdB fragment 1510-1804 (other)
chain: SNNLKDVKVITKDNVNILTGYYLKDDIKISLSLTLQDEKTIKLNSVHLDESGVAEILKFMNRKGNTNTSDSLMSFLESMNIKSIFVNFLQSNIKFILDANFIISGTTSIGQFEFICDENDNIQPYFIKFNTLETNYTLYVGNRQNMIVEPNYDLDDSGDISSTVINFSQKYLYGIDSCVNKVVISPNIYTDEINITPVYETNNTYPEVIVLDANYINEKINVNINDLSIRYVWSNDGNDFILMSTSEENKVSQVKIRFVNVFKDKTLANKLSFNFSDKQDVPVSEIILSFTPSYY
binding result [2]: no binding

B11: TcdB fragment 1454-1804 (other)
chain: SELQKNIPYSFVDSEGKENGFINGSTKEGLFVSELPDVVLISKVYMDDSKPSFGYYSNNLKDVKVITKDNVNILTGYYLKDDIKISLSLTLQDEKTIKLNSVHLDESGVAEILKFMNRKGNTNTSDSLMSFLESMNIKSIFVNFLQSNIKFILDANFIISGTTSIGQFEFICDENDNIQPYFIKFNTLETNYTLYVGNRQNMIVEPNYDLDDSGDISSTVINFSQKYLYGIDSCVNKVVISPNIYTDEINITPVYETNNTYPEVIVLDANYINEKINVNINDLSIRYVWSNDGNDFILMSTSEENKVSQVKIRFVNVFKDKTLANKLSFNFSDKQDVPVSEIILSFTPSYY
binding result [2]: no binding
